According to doi:10.1101/2022.10.10.511565:

Molecular target: Lon-His (C. crescentus) (UniProt B8GX12)
Sequence of UniProt B8GX12 (B8GX12 whole entry): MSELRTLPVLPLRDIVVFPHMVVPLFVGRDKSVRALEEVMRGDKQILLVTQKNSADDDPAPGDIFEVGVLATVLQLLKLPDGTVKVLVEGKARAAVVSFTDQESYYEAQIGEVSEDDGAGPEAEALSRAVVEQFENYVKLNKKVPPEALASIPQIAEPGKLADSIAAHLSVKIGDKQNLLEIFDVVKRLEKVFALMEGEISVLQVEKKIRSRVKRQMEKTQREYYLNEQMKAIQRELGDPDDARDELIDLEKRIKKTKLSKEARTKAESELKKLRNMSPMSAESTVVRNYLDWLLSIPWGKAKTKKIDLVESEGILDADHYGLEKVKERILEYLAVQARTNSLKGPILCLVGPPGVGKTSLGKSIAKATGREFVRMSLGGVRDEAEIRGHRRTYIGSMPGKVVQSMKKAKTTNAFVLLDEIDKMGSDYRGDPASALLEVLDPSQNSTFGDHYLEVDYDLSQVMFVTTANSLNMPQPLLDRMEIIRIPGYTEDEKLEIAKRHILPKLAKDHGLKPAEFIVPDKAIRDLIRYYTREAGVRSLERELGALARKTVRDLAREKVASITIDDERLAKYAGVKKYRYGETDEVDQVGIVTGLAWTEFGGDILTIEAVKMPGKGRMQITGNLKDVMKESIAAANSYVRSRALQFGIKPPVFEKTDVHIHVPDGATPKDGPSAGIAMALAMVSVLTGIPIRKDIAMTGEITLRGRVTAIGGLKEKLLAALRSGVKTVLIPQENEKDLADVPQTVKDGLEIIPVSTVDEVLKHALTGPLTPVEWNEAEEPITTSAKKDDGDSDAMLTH

Which Km of His-SciP degradation by Lon-His (0.05 µM hexamer), without LarA does the source give for His-SciP (natural protein) here?
The Km of His-SciP degradation by Lon-His (0.05 µM hexamer), without LarA was 9.3 µM.
